Results reported in the supplement of paper PMC9170038.

Tested on: MS2 coat protein
Test: apparent KD of MS2 coat protein; higher = weaker reporter binding
Details: Eterna round: R107
Outline: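 For every design, apparent KD is the median of normalised binding-curve fits from its clusters. The RNA switches were transcribed on-chip from Illumina sequencing clusters and titrated with SNAP-549-labelled MS2 coat protein (twofold steps, 0.7 or 1.5 nM to 3 µM; 0.8–1.5 h to 10–20 min per step). Titrations used 100 mM Tris-HCl pH 7.5, 80 mM KCl, 4 mM MgCl2, without or with constant ligand.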

[1] = input ligand: theophylline 20 uM
[2] = input ligand: theophylline 2 mM
[3] = input ligand: tryptophan 2.4 mM

Sequence	apparent KD of MS2 coat protein (input ligand: arginine 13.2 mM) [nM]	apparent KD of MS2 coat protein [1] [nM]	apparent KD of MS2 coat protein [2] [nM]	apparent KD of MS2 coat protein (input ligand: none) [nM]	apparent KD of MS2 coat protein [3] [nM]
GUACCGUAAACGGCCGCCACUGACAUGAGGAUCACCCAUGUGCUGGUGGUGCACAACCUCAGGUUCAGGACCGGGUUUCCGAGCU [theeternabot_exclusion_MS2_Trp_B_50]	23	45.3	32.2		
CUUGAGACAUGAGGAUCACCCAUGUCCGAAGGAGCGUGCGAAAGCACAGGUAGGUCGCGGACGUGAGGAUCUCCCAUGUGAGCGA [#25 Exclusion - Arginine A]	14.3	28.2	25.7	35.9	17.8
AGUACUCGAACGGAUACCAGCCGGACAUGAGGAUCACCCAUGUCCUACCUCUGUUCGGUUGGCCCUUGGCAGCCGUUCGUGUACA [Omei Theo B SS A v7]	41.4	580			128
CUGGCAGGAUUCUCAGCUGUCAGGGCUGAUACCAGCCACGAAAGUGGCCCUUGGCAGCAGCAAACAUGAGGAUCACCCAUGUAAU [(T)''-(M)'-(T)'-(Theo)-(Ms2)_Design1]	279	364	46.3	470	208
CAUGGCUGUGCGGCCGCCACUGGCUCAUCCUGCAUUACAUGAGGAUCACCCAUGUUGCGGCCUCCCAGGACCGGGCAUAGCCUGA [Abediat]	39.5	511	571		
GGGCCCGGGCGCGAGCCCGGGCCCAUUGAUACCAGUGAGAGAGAGCGCCCUUGGCAGCGAAUCCUAACAUGAGGAUCACCCAUGU [5.N]	49.5	84.6	84.3	51.6	41.6
AAAUAAAUACAUGAGGAUCACCCAUGUGAAGGAGCGCCCGUUAGGGCAGGUAGGUCGCACAUGAAUAACUCCGUGCAAAAGCACA [ArgEX 18 #OpenEnded]	20.9	38.8	37.1	29	31.3
UGUAUGGACUGAAGGAGCGGGUUGAUAACUUGAGGAUCACCCAGGUAAAAGGCGAAAGCCGCCCAGGUAGGUCGCAGUCCAUACU	40.2	54.9	61.7	45.6	49.2
GUAGCUAUCGCGGCCGCCACUAAACCGGAAACGGAACAGUAGGAUCACCAUUGUGGCGAAAGCCAUAGGACCGGGCGAUAGCUAC [TryBS - Double Magnet system 2]	601	830	1210	502	80
GGGCCUACCUGAAGGAGCGACAUGAGGAUCACCCAUGUCUCCCGUUAUGGGAGUUCUUUAGGUCAGGUAGGUCGCAGGUAGGGCC [#1 Exclusion - Arginine B Attempt #4 (Inspired by Omei)]	15.3	17	14.1	12.6	14.1
GGGACAUGAGGAUCACCCAUGUACCGGUCCCGAGGACCGGUACGGCCGCCACUCGAUGACCUCAUAGUCUGCUGGAGCAGCAGAC [Usesedarin]		108	84.3	54.6	330
CAAUAUAUAGCGGCCGCCACUUACUCAUGAGGUAACAACAUGAGGAUCACCCAUGUUUGAGGAUCAAGGACCGGGCUAUAUAUUG [AstrosSSTryB#6]	22.2	31.9	32.2		
GCGACCCUGAGAUCCUACGUAACGUGAACACGAGGACCGGUACGGCCGCCACUCGAGAGAACAUGAGGAUCACCCAUGUCUGAGC [e-trypA-0]	17.3	37.2	30.8		
ACGUCUCGAAAACUCGUAGUAACUAUAGAUACCAGUAGCGAGAGUUACCCUUGGCAGCUACAUGAGGAUCACCCAUGUACGAGGA [XTheo A #28]	16.4	20.9			15.1
UUAAUGGAGCUUUUAUUUACGAUUUCUGAUACCAGUGUUUCAUUUCACCCUUGGCAGCAGUGACAUGAGGAUCACCCAUGUAAUA [JR_Nu_SSTheophyA_Sub021]	30.3	33.8			25.9
GGUGGCGGGACUGAUACCAGCCACCACCGAUAGACCACAUGAGGAUCACCCAUGUUGGGUGGCCCUUGGCAGCAGUCUUGCGUCG [#1 Same State - Theophylline B Attempt #16 (HarryS)]	35.9	92.9	21	149	323
UAAUGCAGGUCGGCCGCCACUACACACAUGAGGAUCACCCAUGUAGUUACUGGGUGAAGUGGCAGUAGGACCGGGACCUGCAUAC [Brourdmod04]	165	578	833		
UGUAUGUGAUCUGAUACCAGUGACACGAAAGUGAAUCGCUUGAGGAUCACCCAAGUAAAACACCCUUGGCAGCAGAUCGCAUACU [Full moving switch bubble 1]	20.3	23.5	25	15.6	15.6
UAAUAAUCCAGGGUGUAGGUAAUAACAGAUACCAGCCAGAUAACUGGCCCUUGGCAGCUGAAAACCUGAGGAUCACCCAGGUAAA [TheoAS 23 #OpenEnded #MS2Late #AlternativeMS2]	36.4	122	67.7	56.2	62.6
GACAUGAGGAUCACCCAUGUACCGCGAGAAGGAGCGCGGAUAAACGCAGGUAGGUCGCUCGUGGGCUCACAUUCAAUUGUAAGCU [Digece]	17.5	49.8	58.3	39.2	31.6
AACAACAAGGGAAGGAGCGCGAAUAAUAGACAUGAGGAUCACCCAUGUAUCAUGGGAUUAACGCAGGUAGGUCGCCCACAAACAA [#07 Exclusion - Arginine B]	60.4	155	152	127	71.7
UUAUUUAUAAUGGAUACCAGUGCUGUGGCCCGGCAUCCUGACAUGAGGAUCACCCAUGUGUACCCUUGGCAGCUGUUAUGGGUUU [XTheo B #20]	20.7	28.3			19.3
UGACAGAUAACCGCUGGUGCUCUCGAGUUGCGAGGACCGGUACGGCCGCCACUCGACAACAUGAGGAUCACCCAUGUUGCGGGUC [Lareara]	30.7	108	156		
UAUUUUGGGCGCGAGCCCGGGAUAAUUGAUACCAGUGAAGAAGAGCGCCCUUGGCAGCGAAUCCUAACAUGAGGAUCACCCAUGU [5.Q]	52.5	65.4			45.1
UUAUGCAGGUCGGCCGCCACUACACACAUGAGGAUCACCCAUGUAGUUACUGGGUGAAGUGGCAGUAGGACCGGGACCUGCAUAU [Brourdmod05]	84.5	449	832		
AGAGUCUAGUCGGCCGCCACUCAUGUCCUAAGGACAUGAGGAUCACCCAUGUACCAAAGGUACAUGAGGACCGGGACUGGACUCA [Omei Tryp B SS C v1]	23.3	345	189	75.9	9.28
GGACCAUGGCGCGAUACCAGCUUGAGUGUACUGGCCAGGUACAUGAGGAUCACCCAUGUAAGCCCUUGGCAGCGCGCCAUGGUCC [#1 Exclusion - Theophylline B Attempt #24 (HarryS)]	10.4	16.1	36.5	10.3	10.7
ACCGAGGCAAUGGAUACCAGUGCGCCACAAUCGUGCUUCAACAUGAGGAUCACCCAUGUGCACCCUUGGCAGCCAACGGGCUCAU [theeternabot_exclusion_MS2_Theo_B_19]	15	25.3			19.9
UUCAAAGGGAACGGUGCUGGUGACAGAGAUACCAGCGCGGUAACGCGCCCUUGGCAGCUCAGAACAUGAGGAUCACCCAUGUAAU [Exclusion Theophylline A GF23]	15.9	20.7			15.4
